Measured values published in the DeepSol protein solubility set.

test: soluble on expression in E. coli; label from the status in PepcDB or PDB records

| Sequence | soluble on expression in E. coli |
| --- | --- |
| MRVAIALAKDDATRVYPGPFGHAPRYAIYEAGPSGELVLLEIRENPYAKAHGEEKHAKMRELLRDVDLKVGARFGHKGSLGAFPLADRVEVGPVSLEEALARLKERSSA | soluble |
| MIKLENEVLLVEMKTAGAELTRIFHKDTGLEYLWNADSKFWGRHSPVLFPTVGRLVEDTYLVDGKPYHLGQHGFARDRDFQVVEQTEKSVRFELDADEDSLAVYPYKFKLSIIYTIEKNTVAVSYEVENTDNKRIYFSIGAHPAFNLPLTDGTTFEDYYLDFGTEENLETLCLEGPYRSGEIKKVVDEAARYLPLNYDLFKNDALIFEALKQKEMTIKSDKTPHFVKVSFPEFPFVGVWTAKAGTPFLCIEPWYGIADGAGESVELRDKAGIEHLEPEAVFASEYEITVGLEHHHHHH | soluble |
| MHHHHHHSSGVDLGTENLYFQSNAMSHSIEQLSINTIRTLSIDAIEKANSGHPGMPMGAAPMAYTLWTQFMKHNPNNPTWFNRDRFVLSAGHGSMLLYSLLHLSGYDVTMDDLKNFRQWGSKTPGHPEYGHTAGVDATTGPLGQGIATAVGMAMAERHLAAKYNRDAYNIVDHYTYAICGDGDLMEGVSAEASSLAAHLQLGRLVVLYDSNDISLDGDLNRSFSESVEDRYKAYGWQVIRVEDGNDIEAIAKAIEEAKADEKRPTLIEVRTTIGFGSPNKSGKSASHGSPLGVEETKLTKEAYAWTAEQDFHVAEEVYENFRKTVQDVGETAQAEWNTMLGEYAQAYPELANELQAAMNGLLPEGWEQNLPTYELGSKAATRNSSGAVINAIAESVPSFFGGSADLAGSNKTYMNNEKDFTRDDYSGKNIWYGVREFAMGAAMNGIALHGGLKTYGGTFFVFSDYLRPAIRLAALMQLPVTYVFTHDSIAVGEDGPTHEPIEQLAALRAMPNVSVIRPADGNESVAAWRLALESTNKPTALVLTRQDLPTLEGAKDDTYEKVAKGAYVVSASKKETADVILLATGSEVSLAVEAQKALAVDGVDASVVSMPSMDRFEAQTAEYKESVLPKAVTKRFAIEMGATFGWHRYVGLEGDVLGIDTFGASAPGEKIMEEYGFTVENVVRKVKEML | soluble |
| MSNEGSREESREPEAREGKSDEIFEVEKILAHKVTDNLLVLQVRWLGYGADEDTWEPEEDLQECASEVVAEYYKKLKVTDKTELIELLQKQIKKNKSQKSKKRSKTVSDHESNHDSDGSYGTPKTSKKSKKSAKNETPVSSKVPKVPTKAALKSYEATVSGPVAPNNAKKAAMEVRDTRRNWLDEESSDDEAETTAPLSDVEKIASKVKVVKAVEEKAEEPVKRPSTPPKPREVVIKKDPSESPVASASSVIPTSKRKSINAETSNGRQRTLAPPVIVKDETTWTVDGIARHTDVDNTKTKLILMTNSATGERKVVEGREAFELDGWALAKYLLDRCEF | soluble |
| MSLKEVDLTQEQMKDLNLTYDWYRSYDNAKLNEFLNFVLLNNSDINIARKTLLSALARADLIDYDLYPTLSGNLGFGADKDLNSGKQSKNFNNSLNLSYELDIYGKLRDSASASEFSAKASAYDLENLKISMINTALNDVFELAYFNDVDKLLRAYLSNLEQMKELYNYKYKLGKIEELDLLNIEQSLLRAKQNLLSNDQNRNLLIKNLQDLLARQEGFAYIEYFKTLSLNDFKTLSPDFNIPLKALAYRADVRSKLNSLKSAFKDYSSMQKSILPSISLGGALSGSDKKIDDSFKFEILSGNVKISLPFLDYGRVKQNIKISQFAYEQLLISYEQVLQSAMNEFALNYKDYQSDTLLLQNLQNINIKQELITKAYYEKYILGKSELKDYLDANNTLNSTQQEFLRARFNLLKTINSYYQITALSFNNENLEFPKEGHHHHHH | soluble |
| GSHMSEWKARRFWASVGIHKEEGGWAVLLDERPLRTPGKQPLRLPTEALALAIAEEWQAVQEVIDPNAMPLTRSANSAIEKVAPQFDAVAAMLGDYGGTDLLSYRADAPEALVRAQAEGWDPLIDWAATELRAPLRITHGVIPVPQDPVVLLKLRAEVASLDPFGLTALHDLVTLPGSLILGLAVIRGRIDAPTAHALSRIDEEFQAERWGRDEEAEAQAASRLAAMRDSERFWHLTRG | soluble |
| MSHVNQAVSCIFCYFQEMSFVCGISGELTEDPVVSQVSGHIFDRRLIVKFIAENGTDPISHGELSEDQLVSLKSGGTGSAPRNVSGTSIPSLLKMLQDEWDTVMLNSFSLRQQLQIARQELSHSLYQHDAACRVISRLSKELTAAREALSTLKPHTSAKVDDDVSIDESEDQQGLSEAILAKLEEKSKSLTAERKQRGKNLPEGLAKTEELAELKQTASHTGIHSTGTPGITALDIKGNLSLTGGIDKTVVLYDYEKEQVMQTFKGHNKKINAVVLHPDNITAISASADSHIRVWSATDSSSKAIIDVHQAPVTDISLNASGDYILSASDDSYWAFSDIRSGKSLCKVSVEPGSQIAVHSIEFHPDGLIFGTGAADAVVKIWDLKNQTVAAAFPGHTAAVRSIAFSENGYYLATGSEDGEVKLWDLRKLKNLKTFANEEKQPINSLSFDMTGTFLGIGGQKVQVLHVKSWSEVVSLSDHSGPVTGVRFGENARSLVTCSLDKSLRVFSF | not soluble |
| MTLAIEMKDVMKSFNEKTALRNVNIEVKQGEIFGFLGPSGSGKTTTVKILTSQLLHSVGTVRVLGKDITGPSSIDYKRIGILTDNSGLYERLSIYDNLLLFCDLYDCKKERIDEVLAQVNLLEDKKTLVKKLSKGMKQRVTLARAILHKPDILFLDEPTSALDPVNVQNIHKILKDLNREGTTIFLTTHNMDEAETLCNRIAFLCSGEIVALDTPENLRLQYAKDQIQVVLKDKKKETVQKDELGAKRISEWMKKGELLSIHSYEPTLGDIFIEVTGRGL | not soluble |
| MAEVESFSLDHTKVKAPYVRLAGRKALAGGVVEKYDLRLAQPNREALPTGALHTLEHLLAGYLRDHLPGVIDLSPMGCRTGFYLVVEGPVGEEKVLEAFAQALKDVLAHEGEVPGASFRECGNYRDHDLPGAKAWAEKVLKAGLRVQATVPLEAR | soluble |
| MGSDKIHHHHHHMTEQVVATETVNLSQDSLQIAAYLAQPQAPGSYPGVVVLQEIFGVNGHIRDVTERIAKLGYVAIAPALFQRQAPGFETGYTPQDIEVGRGYAMQTKASELLNDIQAAIDYLKTLPQVKQNGFGCIGFCFGGHVAYLAATLPDIKATASFYGAGIATRTFGGGNPTVTRTPEIKGTLYGFFGTEDASIPPEQIDQIETELEKYNISHRVFRYDGADHGFFCDRRASYNPQAAADAWEQVQQLFKTVLTT | not soluble |
| MQAGPALMSEVASRELRNDTAGVLRRVRAGEDVTITVSGRPVAVLTPVRPRRRRWLSKTEFLSRLRGAQADPGLRNDLAVLAGDTTEDLGPIR | soluble |
| MSLKRAVISGGAGGLGRALSDALQTRGWHVTLLDRDISAIEPSETQRVIQCDLTDPGQLAAACALAIGPQGVDLAVYNAGITQIGLFADSDEASHRRVFEINYFAAVNMARAMLGPVRQARGTHLAISSVAGFAPLYSRTSYAASKHALEGFFKSLRSEERAHGVAVQIAAPSFVATNLGNAQAQPDGIARPGSATDGMDYMTPEAAAATILRGLDRGRDMIPVGRVARLAWWINRLSPGLYQRLMESKIGREGHHHHHH | soluble |
| VPLEHFNVPYEDSFFPAVRVKFQGSTKTLIFHGGYDSCLEEMLPFFSAFENLGYDIIAFEGPGQGMALKNGLKFIHNWERPVSALLDYFNLNEVTILGCSWGGYFCLRAAAFEKRIKAAIVYDIFYCGMDVIGMKNKEMRYELEKLLNNNEKDKINELMYSKMKADIDFNWKISKGMDNTMTYTPYDFLKAIQLHTMDGIEELIDQDVLLLAGEEDQYVPIEAMKLFEDRLVNANITKKIFTKETGGEQHCQVGRIDLAFDEIKKFLVR | not soluble |
| MGSDKIHHHHHHMQIVQIEQAPKDYISDIKIIPSKSLLLITSWDGSLTVYKFDIQAKNVDLLQSLRYKHPLLCCNFIDNTDLQIYVGTVQGEILKVDLIGSPSFQALTNNEANLGICRICKYGDDKLIAASWDGLIEVIDPRNYGDGVIAVKNLNSNNTKVKNKIFTMDTNSSRLIVGMNNSQVQWFRLPLCEDDNGTIEESGLKYQIRDVALLPKEQEGYACSSIDGRVAVEFFDDQGDDYNSSKRFAFRCHRLNLKDTNLAYPVNSIEFSPRHKFLYTAGSDGIISCWNLQTRKKIKNFAKFNEDSVVKIACSDNILCLATSDDTFKTNAAIDQTIELNASSIYIIFDYEN | not soluble |
| MSLQIKFIDLFSGMSGIRKGFEQACRKQSVACECVFTSEIKPAALEVLKQNYPDEVPYGDITKIETGDIPDFDILLAGFPCQAFSFAGKRLGFEDTRGTLFFDVARILKAKKPKGFILENVEGLVTHDRKDPTQKIGRTLTVILETLETLGYYVSWKVLNAKDFGIPQNRKRIYLTGSLKSKPDLSFETTLSPKLKNILESGLPTESSPFIKKLLKKFPPSELYGKSVKDKRGGKNNIHSWDIELKGTVTEEEKQLLNMLLKERRKKKWASEIGIDWMDGMPLTKAQISTFYKHPNLQNILDSLTDKGYLVLEHPKQKIGGRRIKDESLPKGYNIVSGKKSFEINKILDPNDVAPTLVAMDMEHLFVVDNGGLRTLTGKEGLRLFGYPDDYSFDIPKKDKYDLLGNTVAVPVIKAVSERLLHTLEGHHHHHH | soluble |
| MFIDTLIEKIREKDNPSVVGLDPKIEYVPSFIKEDMYKKYGKNLKAVAEAILLFNKYIIDAVYDIVPAVKPQLAYYEMYGLEGMRVFYETCKYAKEKGLLVIADGKRNDIGSTAQCYSAAYLGKTDIDEGISEAVFDVDALTVNPYLGVDGIKPFIDDCVKYNKGIFVLVKTSNKSSGEIQDILTQEGRSIYEIVAEYVESWGENKKGKYGYSCVGAVVGATYPNLAKILRKILKNSYILVPGYGAQGGTARDVAHCFNYDGLGAIVNASRSIMCAYKSEQWKNVYSEEKFYEASRAEAIRMRDDINSALRDRK | not soluble |
| MSQNHVIELANTLKQRPIVCDYTGGRFRLTNEGLTYIGIDRDGTPLPPRWICAPLHIVAKTRDAQSGEWGRLLEWQDDDGITHQWAMPLALLQGDASDVRRELARLGLSISPHRTARDLLASYLQVFPVDARARCVDKLGWHGDVFVTASQCIGQSTEKIVFQNTNAIEPAMSIKGSVDKWRDSIGRLASGNSRLVFAISVALAPVLAKIVGEDSGGFHFRGASSSGKSTALSLAASVWGNPQSYCRLWRSTTNGLEGLAALHNDGLLILDELSQMDPREAGEAAYLLANGQGKTRASRTGTVRQSSRWSLFFLSAGEESLTALMAKSGQRINAGQEIRLADIEADAGCQMGIFETIHDQLSPASMALSLKKYSSGYHGAIGRAWLNQVVANRQTISRFITDTIQSFVDIVIQPDATGQIIRVARRFALVAAAGELASQFGLTGWKKGESFHAAKTCFIAWQDAFGVDGHREDRAIMAQVRAFFESHGASRFDNVNSPNNDKILNRAGFYHTDGEGFRIYMVLTETYKNELCKGFDQRTVTRVLLQAGWLKPASDGKASHKPRIKGVGTPRLYVFTGKIWGGELEHHHHHH | soluble |
| MAHHHHHHMGSLVMGRCRRGAEETFEFREEYALLDAPIANAEHIPLRLRPQERKIQRLMRGVILASSYTDKVDSASALKLKNRELLVVKELTNALTGLIVGLDMRKAASFMRDHEFTPYQHEIRAAIEMCRRYKMMNPDLLRTDYVKFLYMIQDAVQSDMAREALGFNVVKELVTVGRYCETHNMQDILQDTRLPHCITPVPVMKDRNMLNRCLRGKDAVVGKLVKQYASEHRMHEDNVEVVVRSLNDANCFSNDNVETSERLLELLKQYFTPISCTELTSLAIDEGADGSRLTHNHKMQYIFVLQSLSLWKNMCRKMYMLWSLAEEDMLNPNEKYELRMTGQGLQRVQKAPQLFKAIQQVLQETKEELGEWVGSERIHLGDDQVPNAFHFIDKYGQVSRIIIPILRTLGHIDQLERHADHAAYLREVWGGGEQAKRAILRDFFRHGFDGSGGDNMDDAGSCIDGRLTSAWNWCNNIRFKEFYPLFLFSGFSSFDGDMGL | soluble |
